Source: patent US20240287169A1 (AULOS BIOSCIENCE, published 2024)
Residue numbers refer to the chain shown, from its start. Names and notes keep the numbering of the source.

T1: Fc-tagged CD122 (extracellular domain) (human, UniProt P14784 27-240)
T1 construct: extracellular domain; Captured on an anti-human Fc chip; also called Fc tagged hCD122; not shown: Fc tag
T1 sequence (looked up): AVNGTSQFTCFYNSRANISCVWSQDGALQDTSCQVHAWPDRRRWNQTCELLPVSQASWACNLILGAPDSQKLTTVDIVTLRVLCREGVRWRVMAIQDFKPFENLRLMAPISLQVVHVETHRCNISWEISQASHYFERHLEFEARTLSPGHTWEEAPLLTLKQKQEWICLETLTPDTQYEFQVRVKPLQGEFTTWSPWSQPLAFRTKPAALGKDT

T2: Mouse IL-2 (mouse, UniProt P04351 21-169)
T2 construct: Soluble analyte in SPR; also called mIL-2
T2 sequence (looked up): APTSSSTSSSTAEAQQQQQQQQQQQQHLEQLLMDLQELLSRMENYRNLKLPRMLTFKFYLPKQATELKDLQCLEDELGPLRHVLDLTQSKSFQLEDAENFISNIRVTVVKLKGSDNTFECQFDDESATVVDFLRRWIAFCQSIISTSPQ

B1: BDG17.066 (antibody, human IgG1, kappa, L234A L235A, V domains shown)
VH: QVQLVQSGAEVKKPGSSVKVSCKASGYSITDSLIHWVRQAPGQGLEWMGWIDPEDGEINYAQKFQGRVTLTADTSTSTAYMELSSLRSEDTAVYYCARSLDSYPIDPFAYWGQGTLVTVSS
VL: DIVMTQSPDSLAVSLGERATINCKSSQSLLRNGNQQNYLAWYQQKPGQPPKLLIYYASTGQSGVPDRFSGSGSGTDFTLTISSLQAEDVAVYYCQQHYVTPPTFGAGTKVEIKR
notes: Humanized IgG1 with the LALA mutation (L234A, L235A)
B2: BDG17.053 (antibody, V domains shown)
VH: B1 VH with S32Y, I58T, S102Y, Y103D, D106Y
VL: DIVMTQSPDSLAVSLGERATINCKSSQSLLRNGNQKNYLAWYQQKPGQPPKLLIYYASTGQSGVPDRFSGSGSGTDFTLTISSLQAEDVAVYYCQQHYITPPTFGAGTKVEIK
notes: Humanized IgG1
B3: BDG17.038 (antibody, V domains shown)
VH: B1 VH
VL: B2 VL with K36Q, I99V
notes: Humanized IgG1
B4: BDG17.043 (antibody, V domains shown)
VH: B1 VH with S32Y, E57V, I58T, N59A, S102Y, Y103D, D106Y
VL: B2 VL with I99V
notes: Humanized IgG1; also called BDG017.043
B5: BDG17.054 (antibody, V domains shown)
VH: B1 VH with S32D, I58T, Y103T, P104W, D106Y
VL: B2 VL with N32R, Y38H, Y56D, Q95L, H97S
notes: Humanized IgG1 without the LALA mutation
B6: human CD25 (soluble) (receptor, UniProt P01589 22-213, looked up)
chain: ELCDDDPPEIPHATFKAMAYKEGTMLNCECKRGFRRIKSGSLYMLCTGNSSHSSWDNQCQCTSSATRNTTKQVTPQPEEQKERKTTEMQSPMQPVDQASLPGHCREPPPWENEATERIYHFVVGQMVYYQCVQGYRALHRGPAESVCKMTHGKTRWTQPQLICTGEMETSQFPGEEKPQASPEGRPESETSC
notes: Injected as soluble analyte at 1000 nM / 1 uM; also called hCD25; IL-2Rα
B7: biotinylated human CD25 (receptor, UniProt P01589 22-213, looked up)
chain: B6 chain
modifications: biotinylated
notes: Captured on a streptavidin-coated chip; also called biotinylated hCD25
B8: BDG17.023 IgG (antibody, V domains shown)
VH: EIQLQQSGPELRRPGSSVKLSCKASGYNITDYLIHWVRHRPEHGLEWIGWIDPEDGETRYAQKFQSKATLTADTSSNAAYMQLSSLTPEDTATYFCARQLDSTYIYPFAYWGQGTLVTVSS
VL: DIVMTQSPFSLAVSEGEMVTINCKSSQSLLRSGNQKNYLAWYQQKPGQSPKLLIYYASTGQSGVPDRFIGSGSGTDFTLTISDVQAEDLADYYCLQHYITPPTFGAGTKLELK
notes: Human chimeric IgG1 with rat Fv
B9: BDG JES6.1RMC (17.006) (antibody, V domains shown)
VH: B8 VH with Q99S
VL: B8 VL with R31S, T100S
notes: Rat Fv with a mouse IgG2a constant region
B10: BDG17.067 (antibody, human IgG1, kappa, L234A L235A, V domains shown)
VH: B1 VH with S32Y, E57V, I58T, N59A, S102Y, Y103D, D106Y
VL: B1 VL with Q36K
notes: Humanized IgG1 with the LALA mutation; also called BDG17.0067

Key:
Human IL-2 [1] = target: T3, Human IL-2 (human, UniProt P60568 21-153); assay: SPR, multi-cycle, antibody captured, hIL-2 analyte
T3 construct: Soluble analyte in the SPR experiments; also called hIL-2; recombinant human IL-2
Description: (§1) The SPR analysis was done on Biacore […] (GE healthcare, USA) on CM5 chips (cat:br10005-30, GE healthcare, USA). The chip was crosslinked with primary capture Ab against human IgG (Cat: br-1008-39, GE healthcare, USA) or primary capture antibody against mouse IgG (Cat: BR-1008-38, GE healthcare, USA) to a target of 8000RU. After cross-linking of the primary Ab, the mouse and human tested antibodies were immobilized on the primary Ab to a target of approximately additional 500RU. […] At the end of each cycle the analyte and tested antibody were stripped from the chip using 3M MgCl₂ and new tested Ab was loaded on the chip as described above. When indicated, instead of stripping the antibodies, kinetics was determined by injecting series of analyte concentrations in one cycle by the Single-cycle kinetics method. Binding kinetics were determined by the 1:1 Binding model using the Biacore T200 evaluation software.

Human IL-2 [2] = target: T3, Human IL-2; assay: SPR, antibody captured on anti-human IgG CM5 chip, human IL-2 as analyte, single-cycle, 1:1 binding model
Description: as §1

Human IL-2 [3] = target: T3, Human IL-2; assay: SPR, single-cycle, antibody captured, hIL-2 analyte
Description: as §1

Human IL-2 [4] = target: T3, Human IL-2; assay: SPR, antibody captured on anti-human IgG CM5 chip, human IL-2 as analyte, multi-cycle, 1:1 binding model
Description: as §1

BDG17.023-hIL-2 complex = target: T4, BDG17.023-hIL-2 complex (human, UniProt P60568 21-153); assay: SPR, BDG17.023 on CM5 chip saturated with 50 nM hIL-2; 1000 nM CD25 injected after CD122
T4 construct: Non-covalent complex made on the SPR chip: immobilized BDG17.023 IgG1 saturated with 50 nM hIL-2; also called BDG17.023-IL-2 complex

biotinylated human CD25 = target: B7; assay: SPR, biotinylated hCD25 on the chip, soluble hCD25 injected as a control
BDG17.054/hIL-2 complex = target: T5, BDG17.054/hIL-2 complex (human, UniProt P60568 21-153); assay: SPR, antibody captured on CM5 chip and loaded with hIL-2; 1000 nM CD25 injected before CD122 (first set) and after CD122 (second set)
T5 construct: Captured humanized IgG1 saturated with 50 nM hIL-2 on the SPR chip; also called humanized IgG-hIL-2 complex
Procedure: (§2) Subsequently, running buffer was injected for 60 seconds to reach a steady baseline, and then 1000 nM of CD122 was injected for 30 seconds at a flow rate of 30 ul/min. To test CD122 binding, the same experiment was repeated in reverse order, with CD122 injected first flowed by injection of CD25.

BDG17.043/hIL-2 complex = target: T6, BDG17.043/hIL-2 complex (human, UniProt P60568 21-153); assay: SPR, antibody captured on CM5 chip and loaded with 50 nM hIL-2; 1000 nM CD25 injected before CD122
T6 construct: Captured humanized IgG1 saturated with 50 nM hIL-2 on the SPR chip; also called humanized IgG-hIL-2 complex

[5] = target: T7, BDG17.069 (AU-007)/hIL-2 complex (human, UniProt P60568 21-153); assay: SPR, AU-007 captured on CM5 chip and loaded with 10nM hIL-2; 1000nM hCD25 injected before hCD122 (1st set) and after hCD122 (2nd set)
T7 construct: On the SPR chip: captured AU-007 saturated with 50 nM hIL-2; In the HEK reporter assay: hIL-2 titrated in the presence of 200 nM AU-007; also called IL2+AU-007; A/IL-2

BDG17.038/hIL-2 complex = target: T8, BDG17.038/hIL-2 complex (human, UniProt P60568 21-153); assay: SPR, antibody captured on CM5 chip and loaded with 50 nM hIL-2; 1000 nM CD25 injected before CD122
T8 construct: Captured humanized IgG1 saturated with 50 nM hIL-2 on the SPR chip; also called humanized IgG-hIL-2 complex
Procedure: as §2

[6] = target: T1, Fc-tagged CD122 (extracellular domain); assay: SPR, Fc tagged hCD122 captured on a CM5 chip, soluble hCD25 injected
Procedure: Affinity and epitope binding site was assessed using Surface Plasmon Resonance (SPR). […] […] […] Diagrams represent SPR sensorgram traces of complex formation of IL-2R/Cytokine.

BDG17.053/hIL-2 complex = target: T9, BDG17.053/hIL-2 complex (human, UniProt P60568 21-153); assay: SPR, captured antibody saturated with hIL-2, CD25 injected
T9 construct: Captured humanized IgG1 saturated with 50 nM hIL-2 on the SPR chip; also called humanized IgG-hIL-2 complex

[7] = target: T10, Non-alpha-IL-2 (naIL-2, hIL-2/hCD25 conjugate) (human, UniProt P01589 22-240; P60568 21-153); assay: SPR, biotinylated hCD25 on the chip, naIL-2 injected
T10 construct: Expressed in Expi293 cells; also called IL-2-CD25 conjugate; hIL-2/CD25 conjugated cytokine

Human IL-2 [8] = target: T3, Human IL-2; assay: SPR Biacore T200, antibody captured, hIL-2 analyte
Description: as §1

Mouse IL-2 [9] = target: T2, Mouse IL-2; assay: SPR Biacore T200, antibody captured, mIL-2 analyte
Description: as §1

Mouse IL-2 [10] = target: T2, Mouse IL-2; assay: SPR Biacore, antibody captured, mIL-2 analyte
Description: as §1

cynomolgus monkey IL-2 = target: T11, cynomolgus monkey IL-2 (cynomolgus monkey, UniProt Q29615 21-154); assay: SPR, multi-cycle, antibody captured, cynomolgus IL-2 analyte
T11 construct: also called cIL-2
Description: as §1

T11 sequence (Q29615 21-154 limits assumed): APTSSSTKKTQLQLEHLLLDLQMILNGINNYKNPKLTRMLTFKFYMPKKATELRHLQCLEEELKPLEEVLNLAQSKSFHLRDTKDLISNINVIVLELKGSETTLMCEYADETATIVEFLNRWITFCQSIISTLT
T3 sequence (P60568 21-153 limits assumed): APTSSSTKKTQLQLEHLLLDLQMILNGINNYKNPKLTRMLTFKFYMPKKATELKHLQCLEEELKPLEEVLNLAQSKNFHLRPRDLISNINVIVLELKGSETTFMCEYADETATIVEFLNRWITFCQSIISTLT
T8 sequence (P60568 21-153 limits assumed, one chain of several): as the sequence (P60568 21-153 limits assumed) above
T9 sequence (P60568 21-153 limits assumed, one chain of several): as the sequence (P60568 21-153 limits assumed) above
T6 sequence (P60568 21-153 limits assumed, one chain of several): as the sequence (P60568 21-153 limits assumed) above
T7 sequence (P60568 21-153 limits assumed, one chain of several): as the sequence (P60568 21-153 limits assumed) above
T4 sequence (P60568 21-153 limits assumed, one chain of several): as the sequence (P60568 21-153 limits assumed) above
T5 sequence (P60568 21-153 limits assumed, one chain of several): as the sequence (P60568 21-153 limits assumed) above

## B1
Human IL-2 [1]
  Kd: 0.0515 nM
  koff: 0.000785 s⁻¹
  kon: 1.52e+07 M⁻¹ s⁻¹

## B2
Human IL-2 [2]
  kon: 3.39e+07 M⁻¹ s⁻¹
Human IL-2 [3]
  Kd: 0.0643 nM
  koff: 0.00254 s⁻¹
  kon: 3.96e+07 M⁻¹ s⁻¹

## B3
Human IL-2 [4]
  koff: 0.0002 s⁻¹
Human IL-2 [1]
  Kd: 0.0202 nM
  koff: 0.0002 s⁻¹
  kon: 1.41e+07 M⁻¹ s⁻¹

## B4
Human IL-2 [4]
  Kd: 0.0478 nM
  koff: 0.000266 s⁻¹
  kon: 3.39e+07 M⁻¹ s⁻¹
Human IL-2 [1]
  Kd: 0.0482 nM
  koff: 0.000222 s⁻¹

## B5
Human IL-2 [3]
  Kd: 0.0127 nM
  koff: 0.0007 s⁻¹
  kon: 5.5e+07 M⁻¹ s⁻¹

## B6
BDG17.023-hIL-2 complex
  binding result: no binding (tested: 1000 nM)
Biotinylated human CD25
  binding result: no binding (tested: 1 uM)
BDG17.054/hIL-2 complex
  binding result: no binding (tested: 1000 nM)
BDG17.043/hIL-2 complex
  binding result: no binding (tested: 1000 nM)
[5]
  binding result: no binding (tested: 1000 nM)
BDG17.038/hIL-2 complex
  binding result: no binding (tested: 1000 nM)
[6]
  binding result: no binding (tested: 1 uM)
BDG17.053/hIL-2 complex
  binding result: no binding (tested: 1000 nM)

## B7
[7]
  binding result: no binding (tested: 1 uM)

## B8
Human IL-2 [8]
  Kd: 0.0818 nM
  koff: 0.00107 s⁻¹
  kon: 1.31e+07 M⁻¹ s⁻¹
Mouse IL-2 [9]
  Kd: 2460 nM
  koff: 0.0979 s⁻¹
  kon: 39800 M⁻¹ s⁻¹

## B9
Mouse IL-2 [10]
  Kd: 0.13 nM
  koff: 6.3e-05 s⁻¹
  kon: 480000 M⁻¹ s⁻¹

## B10
Cynomolgus monkey IL-2
  Kd: 0.014 nM
  koff: 0.000398 s⁻¹
  kon: 2.83e+07 M⁻¹ s⁻¹
Human IL-2 [1]
  Kd: 0.011 nM
  koff: 0.000372 s⁻¹
  kon: 3.37e+07 M⁻¹ s⁻¹
